T1: PE-labeled CD19 dimer (soluble human CD19 with a His-tag, cross-linked by a PE-labeled anti-His mAb) (human, UniProt P15391 20-291)
T1 construct: extracellular domain; Soluble CD19 mixed 2:1 (molar) with PE-labeled anti-His mAb clone GG11-8F3.5.1; also called soluble CD19; not shown: His-tag
T1 sequence: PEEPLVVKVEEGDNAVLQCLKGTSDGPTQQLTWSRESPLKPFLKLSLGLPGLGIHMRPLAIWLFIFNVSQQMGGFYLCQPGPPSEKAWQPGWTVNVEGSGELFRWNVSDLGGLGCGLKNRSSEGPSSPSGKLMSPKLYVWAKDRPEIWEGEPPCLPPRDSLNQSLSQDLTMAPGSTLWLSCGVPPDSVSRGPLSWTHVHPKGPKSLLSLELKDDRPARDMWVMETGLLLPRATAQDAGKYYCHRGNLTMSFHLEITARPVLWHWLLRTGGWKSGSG

B1: L16-18H CAR (scFv)
scFv: QSALTQPPSASGSPGQSVTISCTGTSSDVGVYNYVSWYQQHPGKAPKLMIYDVSKRPSGVPDRFSGSKSANTASLTISGLQAEDEADYYCAAWDDSLNGVVFGGGTQLTVLGSTSGSGKPGSGEGSTKGEVQLVESGGGLVQPGRSLRLSCAASGFTFDDYAMHWVRQAPGKGLEWVSGISWNSGRIGYADSVKGRFTISRDNAKNSLFLQMNSLRAEDTAVYYCARDQGYHYYDSAEHAFDIWGQGTVVTVSSAAAIEVMYPPPYLDNEKSNGTIIHVKGKHLCPSPLFPGPSKPFWVLVVVGGVLACYSLLVTVAFIIFWVRSKRSRLLHSDYMNMTPRRPGPTRKHYQPYAPPRDFAAYRSRVKFSRSADAPAYQQGQNQLYNELNLGRREEYDVLDKRRGRDPEMGGKPRRKNPQEGLYNELQKDKMAEAYSEIGMKGERRRGKGHDGLYQGLSTATKDTYDALHMQALPPR
notes: Chimeric antigen receptor on cells; also called L16-18H CAR-Ts
B2: L7-18H CAR (scFv)
scFv: QSALTQPRSVSGSPGQSVTISCTGTSSDVGGYNYVSWYQQHPGKAPKLMIYDVSNRPSGVSNRFSGSKSGNTASLTISGLQTGDEADYYCGTWDTSLTAVVFGGGTELTVLGSTSGSGKPGSGEGSTKGEVQLVESGGGLVQPGRSLRLSCAASGFTFDDYAMHWVRQAPGKGLEWVSGISWNSGRIGYADSVKGRFTISRDNAKNSLFLQMNSLRAEDTAVYYCARDQGYHYYDSAEHAFDIWGQGTVVTVSSAAAIEVMYPPPYLDNEKSNGTIIHVKGKHLCPSPLFPGPSKPFWVLVVVGGVLACYSLLVTVAFIIFWVRSKRSRLLHSDYMNMTPRRPGPTRKHYQPYAPPRDFAAYRSRVKFSRSADAPAYQQGQNQLYNELNLGRREEYDVLDKRRGRDPEMGGKPRRKNPQEGLYNELQKDKMAEAYSEIGMKGERRRGKGHDGLYQGLSTATKDTYDALHMQALPPR
notes: Chimeric antigen receptor on cells; also called L7-18H CAR-Ts
B3: K5-18H CAR (scFv)
scFv: EIVLTQSPGTLSLSPGERATLSCRASQSVSSYLAWYQQKPGQAPRLLIYDASNRATGIPARFSGSGSGTDFTLTISSLEPEDFATYYCQQSYSTLLYTFGQGTKLEIKGSTSGSGKPGSGEGSTKGEVQLVESGGGLVQPGRSLRLSCAASGFTFDDYAMHWVRQAPGKGLEWVSGISWNSGRIGYADSVKGRFTISRDNAKNSLFLQMNSLRAEDTAVYYCARDQGYHYYDSAEHAFDIWGQGTVVTVSSAAAIEVMYPPPYLDNEKSNGTIIHVKGKHLCPSPLFPGPSKPFWVLVVVGGVLACYSLLVTVAFIIFWVRSKRSRLLHSDYMNMTPRRPGPTRKHYQPYAPPRDFAAYRSRVKFSRSADAPAYQQGQNQLYNELNLGRREEYDVLDKRRGRDPEMGGKPRRKNPQEGLYNELQKDKMAEAYSEIGMKGERRRGKGHDGLYQGLSTATKDTYDALHMQALPPR
notes: Chimeric antigen receptor on cells; also called K5-18H CAR-Ts
B4: L22-18H CAR (scFv)
scFv: QSALTQPASVSGSPGQSITISCTGTSSDVGGYNYVSWYQQHPGKAPKLMIYDVSNRPSGVPDRFSGSKSGTSASLAISGLQSEDEADYYCHSYDSSLSHVFGTGTKVTVLGSTSGSGKPGSGEGSTKGEVQLVESGGGLVQPGRSLRLSCAASGFTFDDYAMHWVRQAPGKGLEWVSGISWNSGRIGYADSVKGRFTISRDNAKNSLFLQMNSLRAEDTAVYYCARDQGYHYYDSAEHAFDIWGQGTVVTVSSAAAIEVMYPPPYLDNEKSNGTIIHVKGKHLCPSPLFPGPSKPFWVLVVVGGVLACYSLLVTVAFIIFWVRSKRSRLLHSDYMNMTPRRPGPTRKHYQPYAPPRDFAAYRSRVKFSRSADAPAYQQGQNQLYNELNLGRREEYDVLDKRRGRDPEMGGKPRRKNPQEGLYNELQKDKMAEAYSEIGMKGERRRGKGHDGLYQGLSTATKDTYDALHMQALPPR
notes: Chimeric antigen receptor on cells; also called L22-18H CAR-Ts
B5: K6-18H CAR (scFv)
scFv: EIVLTRSPATLSLSPGERATLSCRASQSVSSYLAWYQQKPGQAPRLLIYDASNRATGISARFSGSGSGTEFTLTISSLQSEDIATYYCQQYDSLPLTFGGGTKLEIKGSTSGSGKPGSGEGSTKGEVQLVESGGGLVQPGRSLRLSCAASGFTFDDYAMHWVRQAPGKGLEWVSGISWNSGRIGYADSVKGRFTISRDNAKNSLFLQMNSLRAEDTAVYYCARDQGYHYYDSAEHAFDIWGQGTVVTVSSAAAIEVMYPPPYLDNEKSNGTIIHVKGKHLCPSPLFPGPSKPFWVLVVVGGVLACYSLLVTVAFIIFWVRSKRSRLLHSDYMNMTPRRPGPTRKHYQPYAPPRDFAAYRSRVKFSRSADAPAYQQGQNQLYNELNLGRREEYDVLDKRRGRDPEMGGKPRRKNPQEGLYNELQKDKMAEAYSEIGMKGERRRGKGHDGLYQGLSTATKDTYDALHMQALPPR
notes: Chimeric antigen receptor on cells; also called K6-18H CAR-Ts
B6: K4-18H CAR (scFv)
scFv: EIVLTQSPGTLSLSPGERATLSCRASQSVSSNLAWYQQKPGQAPRLLIYGASTRATGIPARFSGSGSGTEFTLTISSLQSEDFAVYYCQQYNNWPPLYTFGQGTKLEIKGSTSGSGKPGSGEGSTKGEVQLVESGGGLVQPGRSLRLSCAASGFTFDDYAMHWVRQAPGKGLEWVSGISWNSGRIGYADSVKGRFTISRDNAKNSLFLQMNSLRAEDTAVYYCARDQGYHYYDSAEHAFDIWGQGTVVTVSSAAAIEVMYPPPYLDNEKSNGTIIHVKGKHLCPSPLFPGPSKPFWVLVVVGGVLACYSLLVTVAFIIFWVRSKRSRLLHSDYMNMTPRRPGPTRKHYQPYAPPRDFAAYRSRVKFSRSADAPAYQQGQNQLYNELNLGRREEYDVLDKRRGRDPEMGGKPRRKNPQEGLYNELQKDKMAEAYSEIGMKGERRRGKGHDGLYQGLSTATKDTYDALHMQALPPR
notes: Chimeric antigen receptor on cells; also called K4-18H CAR-Ts
B7: L13-18H CAR (scFv)
scFv: QSALTQPASVSGSPGQSITISCTGLSSDVGGYDYVSWYQQHPGIAPKLMIYDVTNRPSGVSSRFSGSKSGNTASLTISGLQAEDEADYYCSSYTTSTTWVFGAGTKLTVLGSTSGSGKPGSGEGSTKGEVQLVESGGGLVQPGRSLRLSCAASGFTFDDYAMHWVRQAPGKGLEWVSGISWNSGRIGYADSVKGRFTISRDNAKNSLFLQMNSLRAEDTAVYYCARDQGYHYYDSAEHAFDIWGQGTVVTVSSAAAIEVMYPPPYLDNEKSNGTIIHVKGKHLCPSPLFPGPSKPFWVLVVVGGVLACYSLLVTVAFIIFWVRSKRSRLLHSDYMNMTPRRPGPTRKHYQPYAPPRDFAAYRSRVKFSRSADAPAYQQGQNQLYNELNLGRREEYDVLDKRRGRDPEMGGKPRRKNPQEGLYNELQKDKMAEAYSEIGMKGERRRGKGHDGLYQGLSTATKDTYDALHMQALPPR
notes: Chimeric antigen receptor on cells; also called L13-18H CAR-Ts
B8: L14-18H CAR (scFv)
scFv: QSALTQPASVSGSPGQSITISCTGTTSDVGTTNYVSWYQQHPGKAPKLLIYDVTNRPSGVPDRFSGSKSANTASLTISGLQAEDEADYYCCSYAGSYTFVVFGGGTELTVLGSTSGSGKPGSGEGSTKGEVQLVESGGGLVQPGRSLRLSCAASGFTFDDYAMHWVRQAPGKGLEWVSGISWNSGRIGYADSVKGRFTISRDNAKNSLFLQMNSLRAEDTAVYYCARDQGYHYYDSAEHAFDIWGQGTVVTVSSAAAIEVMYPPPYLDNEKSNGTIIHVKGKHLCPSPLFPGPSKPFWVLVVVGGVLACYSLLVTVAFIIFWVRSKRSRLLHSDYMNMTPRRPGPTRKHYQPYAPPRDFAAYRSRVKFSRSADAPAYQQGQNQLYNELNLGRREEYDVLDKRRGRDPEMGGKPRRKNPQEGLYNELQKDKMAEAYSEIGMKGERRRGKGHDGLYQGLSTATKDTYDALHMQALPPR
notes: Chimeric antigen receptor on cells; also called L14-18H CAR-Ts
B9: K9-18H CAR (scFv)
scFv: EIVLTQSPATLSLSPGERATVSCRPSQTISASSVAWYQQKAGQAPRLLIYGASSRATGIPDRFSGSGSGTDFTLTISRLEPEDFAVYYCQQFNEWPLTFGGGTKVEIKGSTSGSGKPGSGEGSTKGEVQLVESGGGLVQPGRSLRLSCAASGFTFDDYAMHWVRQAPGKGLEWVSGISWNSGRIGYADSVKGRFTISRDNAKNSLFLQMNSLRAEDTAVYYCARDQGYHYYDSAEHAFDIWGQGTVVTVSSAAAIEVMYPPPYLDNEKSNGTIIHVKGKHLCPSPLFPGPSKPFWVLVVVGGVLACYSLLVTVAFIIFWVRSKRSRLLHSDYMNMTPRRPGPTRKHYQPYAPPRDFAAYRSRVKFSRSADAPAYQQGQNQLYNELNLGRREEYDVLDKRRGRDPEMGGKPRRKNPQEGLYNELQKDKMAEAYSEIGMKGERRRGKGHDGLYQGLSTATKDTYDALHMQALPPR
notes: Chimeric antigen receptor on cells; also called K9-18H CAR-Ts
B10: L9-18H CAR (scFv)
scFv: QSVLTQPPSVSAAPGQKVTISCSGSWSNIGDDHVSWYQQFPGAAPKLLIYDTSKRPSRVADRFSGSKSGASATLAITGLQAGDEADYYCGTWESSLSGVVFGGGTELTVLGSTSGSGKPGSGEGSTKGEVQLVESGGGLVQPGRSLRLSCAASGFTFDDYAMHWVRQAPGKGLEWVSGISWNSGRIGYADSVKGRFTISRDNAKNSLFLQMNSLRAEDTAVYYCARDQGYHYYDSAEHAFDIWGQGTVVTVSSAAAIEVMYPPPYLDNEKSNGTIIHVKGKHLCPSPLFPGPSKPFWVLVVVGGVLACYSLLVTVAFIIFWVRSKRSRLLHSDYMNMTPRRPGPTRKHYQPYAPPRDFAAYRSRVKFSRSADAPAYQQGQNQLYNELNLGRREEYDVLDKRRGRDPEMGGKPRRKNPQEGLYNELQKDKMAEAYSEIGMKGERRRGKGHDGLYQGLSTATKDTYDALHMQALPPR
notes: Chimeric antigen receptor on cells; also called L9-18H CAR-Ts
B11: L17-18H CAR (scFv)
scFv: QSVLTQPPSASGTPGQRVTISCSGSSSNIGNNYVCWYQHLPGTAPKLLIYDNVKRPSGIPDRFSGSKSGTSASLAISGLRSEDEADYYCAAWDDSLSAIFGGGTELTVLGSTSGSGKPGSGEGSTKGEVQLVESGGGLVQPGRSLRLSCAASGFTFDDYAMHWVRQAPGKGLEWVSGISWNSGRIGYADSVKGRFTISRDNAKNSLFLQMNSLRAEDTAVYYCARDQGYHYYDSAEHAFDIWGQGTVVTVSSAAAIEVMYPPPYLDNEKSNGTIIHVKGKHLCPSPLFPGPSKPFWVLVVVGGVLACYSLLVTVAFIIFWVRSKRSRLLHSDYMNMTPRRPGPTRKHYQPYAPPRDFAAYRSRVKFSRSADAPAYQQGQNQLYNELNLGRREEYDVLDKRRGRDPEMGGKPRRKNPQEGLYNELQKDKMAEAYSEIGMKGERRRGKGHDGLYQGLSTATKDTYDALHMQALPPR
notes: Chimeric antigen receptor on cells; also called L17-18H CAR-Ts

Target: T1, PE-labeled CD19 dimer (soluble human …)
Assay: flow cytometry; PE-labeled CD19 dimer (40 µg/mL) on CAR-expressing Jurkat 76 cells
Method: The Jurkat 76 cells that had expressed the CARs were reacted with the PE-labeled anti-human NGFR mAb. […] The stained Jurkat 76 cells expressing the CARs were analyzed by flow cytometry. […] A control 1 was performed in the same manner, except that CD19 dimer staining was not performed. A control 2 was performed in the same manner, except that the expression vectors that included the polynucleotides coding for the CARs were not introduced.

Binding result, binds:
B1
B2
B3
B4
B5
B6
B7
B8
B9
B10
B11
